Results taken from US20230265217A1 (TWIST BIOSCIENCE, published 2023).
Positions count from the first letter of the chain named.

B1: 3-31 (VHH)
VHH: EVQLVESGGGLVQPGGSLRLSCAASGSTFSINAMGWFRQAPGKEREFVAGITSSGGYTNYADSVKGRFTISADNSKNTAYLQMNSLKPEDTAVYYCAADGVPEYSDYASGPVWGQGTLVTVSS
notes: also called 3-31_ExpiCHO
B2: 7-26 (VHH)
VHH: B1 VHH
B3: 3-28 (VHH, not shown: a dimerising Fc or GST)
VHH: EVQLVESGGGLVQPGGSLRLSCAASGFTFRRYDMGWFRQAPGKEREFVSAISGGLAYYADSVKGRFTISADNSKNTAYLQMNSLKPEDTAVYYCAVDLSGDAVYDWGQGTLVTVSS
B4: 7-30 (VHH, not shown: a dimerising Fc or GST)
VHH: EVQLVESGGGLVQPGGSLRLSCAASGRTFSMHAMGWFRQAPGKEREFVASISSQGRTNYADSVKGRFTISADNSKNTAYLQMNSLKPEDTAVYYCAAEVRNGSDYLPIDWGQGTLVTVSS
B5: 6A-3 (VHH)
VHH: EVQLVESGGGLVQPGGSLRLSCAASGFTFSPSWMGWFRQAPGKEREFVATINEYGGRNYADSVKGRFTISADNSKNTAYLQMNSLKPEDTAVYYCARVDRDFDYWGQGTLVTVSS
B6: 5A-1 (VHH)
VHH: EVQLVESGGGLVQPGGSLRLSCAASGGTFSSIGMGWFRQAPGKEREFVAAISWDGGATAYADSVKGRFTISADNSKNTAYLQMNSLKPEDTAVYYCAKEDVGKPFDWGQGTLVTVSS
B7: 6A-63 (VHH)
VHH: EVQLVESGGGLVQPGGSLRLSCAASGQTFNMGWFRQAPGKEREFVAAIGSGGSTSYADSVKGRFTISADNSKNTAYLQMNSLKPEDTAVYYCWRLGNDYFDYWGQGTLVTVSS
B8: 7-24 (VHH, not shown: a dimerising Fc or GST)
VHH: EVQLVESGGGLVQPGGSLRLSCAASGFTFSRHAMNWFRQAPGKEREFVSTITGSGGSTNYADSVKGRFTISADNSKNTAYLQMNSLKPEDTAVYYCAREVGLYYYGSGSSSRRLLGRIDYYFDYWGQGTLVTVSS
B9: 7-8 (VHH)
VHH: B1 VHH with S30T, A49S, T52S, S53H, S54N, Y57T
B10: 7-32 (VHH)
VHH: EVQLVESGGGLVQPGGSLRLSCAASGSTFSVNAMGWFRQAPGKEREFVAGVTRGGYTNYADSVKGRFTISADNSKNTAYLQMNSLKPEDTAVYYCAADGVPEYSDYASGPVWGQGTLVTVSS
B11: 7-6 (VHH, not shown: a dimerising Fc or GST)
VHH: EVQLVESGGGLVQPGGSLRLSCAASGRIFYPMGWFRQAPGKEREFVAAVRWSSTGIYYTQYADSVKGRFTISADNSKNTAYLQMNSLKPEDTAVYYCAAALSEVWRGSENLREGYDWGQGTLVTVSS
B12: 8-3 (VHH, not shown: a dimerising Fc or GST)
VHH: EVQLVESGGGLVQPGGSLRLSCAASGTTLDYYAMGWFRQAPGKEREFVAAISWSGGSTAYADSVKGRFTISADNSKNTAYLQMNSLKPEDTAVYYCAREDYYDSSGYSWGQGTLVTVSS
B13: 3-17 (VHH, not shown: a dimerising Fc or GST)
VHH: EVQLVESGGGLVQPGGSLRLSCAASGRTSSSAVMGWFRQAPGKEREFVAAINRGGSTIYVDSVKGRFTISADNSKNTAYLQMNSLKPEDTAVYYCATGPYRSYFARSYLWGQGTLVTVSS
B14: 3-24 (VHH, not shown: a dimerising Fc or GST)
VHH: EVQLVESGGGLVQPGGSLRLSCAASGINFSRYGMGWFRQAPGKEREFVASITYLGRTNYADSVKGRFTISADNSKNTAYLQMNSLKPEDTAVYYCALRVRPYGQYDWGQGTLVTVSS
B15: 7-29 (VHH, not shown: a dimerising Fc or GST)
VHH: EVQLVESGGGLVQPGGSLRLSCAASGRTHSIYPMGWFRQAPGKEREFVASITSYGDTNYADSVKGRFTISADNSKNTAYLQMNSLKPEDTAVYYCAARRWIPPGPIWGQGTLVTVSS
B16: 7-21 (VHH)
VHH: EVQLVESGGGLVQPGGSLRLSCAASGRTISRYTMGWFRQAPGKEREFVASITSGGSTAYADSVKGRFTISADNSKNTAYLQMNSLKPEDTAVYYCAKEDVGKPFDWGQGTLVTVSS
B17: 7-40 (VHH)
VHH: B16 VHH with I29F, S30R, S53K, G54F, A58N
B18: 7-41 (VHH)
VHH: B16 VHH with I29F, R31T, T33V, T52S, G54R, S56I, A58H
B19: 7-22 (VHH, not shown: a dimerising Fc or GST)
VHH: B16 VHH with S30T, E98Q
B20: 7-45 (VHH)
VHH: B16 VHH with I29L, A58N
B21: 7-31 (VHH, not shown: a dimerising Fc or GST)
VHH: EVQLVESGGGLVQPGGSLRLSCAASGFTFSNYSMGWFRQAPGKEREFVAAIHWNGDSTAYADSVKGRFTISADNSKNTAYLQMNSLKPEDTAVYYCAAQTEDSAQYIWGQGTLVTVSS
B22: 7-17 (VHH, not shown: a dimerising Fc or GST)
VHH: EVQLVESGGGLVQPGGSLRLSCAASGFSLDYYGMGWFRQAPGKEREFVAAITSGGTPHYADSVKGRFTISADNSKNTAYLQMNSLKPEDTAVYYCASAYNPGIGYDWGQGTLVTVSS
B23: 8-06 (VHH, not shown: a dimerising Fc or GST)
VHH: EVQLVESGGGLVQPGGSLRLSCAASGFTFDYYAMGWFRQAPGKEREFVSAIDSEGRTSYADSVKGRFTISADNSKNTAYLQMNSLKPEDTAVYYCARWGPFDIWGQGTLVTVSS
notes: also called 8-6
B24: 8-10 (VHH, not shown: a dimerising Fc or GST)
VHH: EVQLVESGGGLVQPGGSLRLSCAASGFIGNYHAMGWFRQAPGKEREFVAAVTWSGGTTNYADSVKGRFTISADNSKNTAYLQMNSLKPEDTAVYYCAREGYYYDSSGYPYYFDYWGQGTLVTVSS

What follows are binders tested against T1, SARS-CoV-2 S1 [S1N-C52H4] (SARS-CoV-2, UniProt P0DTC2 16-685) (assay: Carterra SPR).
T1 construct: domain: S1
With B1 the Kd was 4.12 nM.

Each binder was assayed against T2, Antibody 178-09_His B.1.1.7 (27080) (SARS-CoV-2, UniProt P0DTC2 14-685) (assay: Carterra SPR).
T2 construct: domain: S1; also called TB178-9
B2 showed a Kd of 22.7 nM. B1 gave a Kd of 16.1 nM. In the case of B3, the Kd is reported as 16.6 nM. B4 showed a Kd of 32 nM.

The binders below were run against T3, Antibody 178-10_His CA_W152C_L452R_D614G (27081) (SARS-CoV-2, UniProt P0DTC2 14-685) (assay: Carterra SPR).
T3 construct: domain: S1; also called CA variant S1; California variant S1
B2 was tested, and the Kd was 34.8 nM. Work on B1 yielded a Kd of 41 nM. Binder B5 has a Kd of 26.8 nM. In the case of B6, the Kd is reported as 12.7 nM. For B4, the Kd was 55.9 nM. B7: no binding.

Each binder was assayed against T4, Antibody 178-08_His 501.V2 (27079) (SARS-CoV-2, UniProt P0DTC2 14-685) (assay: Carterra SPR).
T4 construct: domain: S1; also called TB178-8
Work on B2 yielded a Kd of 74.9 nM. Binder B1 has a Kd of 96700 nM. For B3, the Kd was 22 nM.

What follows are binders tested against T5, S1 RBD L452R E484Q (Acro) (SARS-CoV-2, UniProt P0DTC2 319-537) (assay: Carterra SPR).
T5 construct: domain: S1 RBD; also called SARS-COV-2 RBD India Var; L452R E484Q S1; India variant mutation L452R E484Q
B8: no binding. B9: no binding. B10: no binding. B11: no binding. B12: no binding. B13: no binding. B14: no binding. B15: no binding. B3: no binding. B4: no binding. B16: no binding. B17: no binding. B18: no binding. B19: no binding. B20: no binding. B21: no binding.

Molecular target: T2, Antibody 178-09_His B.1.1.7 (27080)
Assay: Carterra SPR
Remark: another data set of the same source
B8: no binding. B2 gave a Kd of 22.7 nM. For B1, the Kd was 16.1 nM. B9: no binding. B10 was tested, and the Kd was 62.4 nM. Binder B11 has a Kd of 42.4 nM. In the case of B12, the Kd is reported as 40.5 nM. B13: no binding. In the case of B14, the Kd is reported as 2610 nM. For B22, the Kd was 39.8 nM. Work on B23 yielded a Kd of 141 nM. For B15, the Kd was 54.8 nM. Work on B24 yielded a Kd of 377 nM. B3 was tested, and the Kd was 16.6 nM. B4 gave a Kd of 32 nM. For B16, the Kd was 35.6 nM. B17: no binding. In the case of B18, the Kd is reported as 35.6 nM. Work on B19 yielded a Kd of 41.7 nM. With B20 the Kd was 43.4 nM. B21 was tested, and the Kd was 388 nM.

Molecular target: T3, Antibody 178-10_His …
Assay: Carterra SPR
Remark: another data set of the same source
B8: no binding. B2 gave a Kd of 34.8 nM. B1 showed a Kd of 41 nM. B9: no binding. B10: no binding. B11: no binding. B12 gave a Kd of 100 nM. B13: no binding. B14: no binding. B22: no binding. B23: no binding. B15: no binding. B24: no binding. B3: no binding. B4 showed a Kd of 55.9 nM. With B16 the Kd was 277 nM. B17: no binding. Binder B18 has a Kd of 95.5 nM. Work on B19 yielded a Kd of 698 nM. B20: no binding. B21: no binding.

Molecular target: T4, Antibody 178-08_His 501.V2 (27079)
Assay: Carterra SPR
Remark: another data set of the same source
B8: no binding. B2 was tested, and the Kd was 74.9 nM. With B1 the Kd was 96700 nM. B9: no binding. B10: no binding. B11: no binding. B12 showed a Kd of 1.7 nM. B13: no binding. B14 showed a Kd of 586 nM. B22: no binding. B23: no binding. B15: no binding. B24: no binding. With B3 the Kd was 22 nM. B4: no binding. B16: no binding. B17: no binding. B18: no binding. B19: no binding. B20: no binding. B21: no binding.
